The values that follow come from PMC11448365 (Genes to Cells, 2023).

Broadly, the stoichiometry N is the number of molecules, sites or subunits per partner or assembly.

This data set deals with the molecule itself. Briefly: mass photometry.

B1: Irgb6-WT (wild-type Irgb6) (enzyme, mouse)
chain: MAWASSFDAFFKNFKRESKIISEYDITLIMTYIEENKLQKAVSVIEKVLRDIESAPLHIAVTGETGAGKSTFINTLRGVGHEEKGAAPTGAIETTMKRTPYPHPKLPNVTIWDLPGIGTTNFTPQNYLTEMKFGEYDFFIIISATRFKENDAQLAKAIAQMGMNFYFVRTKIDSDLDNEQKFKPKSFNKEEVLKNIKDYCSNHLQESLDSEPPVFLVSNVDISKYDFPKLETKLLQDLPAHKRHVFSLSLQSLTEATINYKRDSLKQKVFLEAMKAGALATIPLGGMISDILENLDETFNLYRSYFGLDDASLENIAQDLNMSVDDFKVHLRFPHLFAEHNDESLEDKLFKYIKHISSVTGGPVAAVTYYRMAYYLQNLFLDTAANDAIALLNSKALFEKKVGPYISEPPEYWEA
B1: the “stoichiometry N” value is 2.
